Measurements as given in patent US12065507B2 (priority 2020, dated 2024).
Where a chain is given by its changes, count along the chain named. Like-named read-outs stand apart in the source and are kept apart here.

What was measured:
[1] = cited from earlier work
[2] = collected from the references cited; read-out: Activities (Kd), Morphine; cited from earlier work
[3] = mice; cited from earlier work
[4] = Competitive binding of [H^3]-morphine against naltrexone
[5] = Competitive binding of [H^3]-morphine against meperidine; settings: read-out: Kd, meperidine; from IC50 against 2 nM [H^3]-morphine
[6] = read-out: Kd, morphine; 2 nM [H^3]-morphine, room temperature, 60 minutes, pH 7.4
Description: The binding constant of the antibody with [H^3]-morphine were tested using liquid scintillation counting. Briefly, 2 nM [H^3]-morphine was incubated with different concentration of antibody at room temperature for 60 minutes. The total volume of mixture was 100 and pH was 7.4.

[7] = Competitive binding of [H^3]-morphine against naloxone
[8] = Competitive binding of [H^3]-morphine against oxycodone; settings: read-out: Kd, oxycodone; from IC50 against 2 nM [H^3]-morphine
[9] = collected from the references cited, read-out: Activities (Kd), 6-MAM
[10] = 10 μM competing drug, 60 nM antibody, 2 nM [H^3]-morphine

B1: Ab19 (antibody, V domains shown)
VH: EVQLVESGGGLVQPGRSLRLSCAASGFSFGDYARIMVRQAPGKGLEWVSGISWDSYTTGYADSVKGRFTVSRDNAICNSLYLQMNSLRPEDTAVYYCAKAPSPRRVIIEYFDSDYWGGTSLTVSS
VL: QSVLTQPPSVSGAPGQRVTISCTGSSSNIGAGYDVHWYQQLPGTAPKLLIYGNSNRPSGVPDRFSGSKSGTSASLAITGLQAEDEADYYCQSYDSSLRGVVFGGGTKLTVL
modifications: Ab19 - Heavy chain; Ab19 - Light chain
For B1, the Kd [1, 9] is given as 160 nM and the Kd [2] is given as ≥ 10000 nM.

B2: Ab24: known anti-6-MAM antibody 6-MAM-120; heavy chain SEQ ID NO: 36, light chain SEQ ID NO: 62 (antibody, V domains shown)
VH: EVQLVESGGGLVQPGRSLRLSCAASGFTFGDYAIHMVRQAPGKGLEWVAGISWDSYTTGYADSVKGRFTVSRDNAKNSLYLQMNSLRPEDTAVYYCAICAPSPRRVIIEYFQYDYWGQGTSLTVSS
VL: B1 VL with V3A, P8A, R98S
modifications: Ab24 - Heavy chain; Ab24 - Light chain
For B2, the Kd [1, 9] is listed as 250 nM and the Kd [2] is listed as > 10000 nM.

B3: Ab20: known anti-6-MAM antibody 6-MAM-102; heavy chain SEQ ID NO: 32, light chain SEQ ID NO: 58 (antibody, V domains shown)
VH: EVQLVESGGGLVQPGRSLRLSCAASGFSFGDYAIHMVRQAPGKGLEWVSGISWDSYTTGYADSVKGRFTVSRDNAKNSLYLQMNSLRPEDTAVYYCAKAPSPRRVHEYFDSDYWGQGTSLTVSS
VL: B1 VL with V3A, P8A, I20M, Y51F, S54T, G66A, S95N, R98S
modifications: Ab20 - Heavy chain; Ab20 - Light chain
For B3, the Kd [1, 9] is given as 170 nM and the Kd [2] is given as > 10000 nM.

B4: Ab21: known anti-6-MAM antibody 6-MAM-103; heavy chain SEQ ID NO: 33, light chain SEQ ID NO: 59 (antibody, V domains shown)
VH: EVQLVESGGGLVQPGRSLRLSCAASGFSFGDYAIHMVRQAPGKGLEWVSGISWDSYTTGYADSVKGRFTVSRDNAICNSLYLQMNSLRPEDTAVYYCAKAPSPRRVIIEYFDSDYWGQGTSLTVSS
VL: B1 VL with V3A, P8A, R98S
modifications: Ab21 - Heavy chain; Ab21 - Light chain
For B4, the Kd [1, 9] is given as 100 nM and the Kd [2] is given as > 10000 nM.

B5: Ab17: known 6-MAM-specific mAb 6-MAM-214; heavy chain SEQ ID NO: 29, light chain SEQ ID NO: 55 (antibody, V domains shown)
VH: EVQLVESGGGLVQPGRSLRLSCAASGFSFGDYAIHMVRQAPGKGLEWVSGISWDSYTTGYADSVKGRFTVSRDNAKNSLYLQMNSLRPEDTAVYYCAKAPSPRRVIIEYFDSDYWGQGTSLTVSS
VL: QSALTQPASVSGAPGQTVSISCTGWSSNIGAGYDVHWYQQLPGTAPKLLISHNTNRPSGVPDRFSGSKSGTSASLAITGLQAEDEADYYCQSYDSTLGVVVEGGGTICLTVL
modifications: Ab17 - Heavy chain; Ab17 - Light chain
In the case of B5, the “Effect on acute heroin effects” value [3] is listed as “able to reduce the acute heroin effects in mice”, the Kd [1, 9] is listed as 300 nM and the Kd ([1]; literature value, read-out: affinity for 6-MAM) is listed as 300 nM. The Kd [2] was > 10000 nM.

B6: Ab22: known anti-6-MAM antibody 6-MAM-108; heavy chain SEQ ID NO: 34, light chain SEQ ID NO: 60 (antibody, V domains shown)
VH: B5 VH
VL: QSVLTQPPSVSGAPGQRVTISCTGSSSNIGAGYDVHWYQQLPGTAPKLLWGNSNRPSGVPDRFSGSKSGTSASLAITGLQAEDEADYYCQSYDSSLSGVVFGGGTKLTVL
modifications: Ab22 - Heavy chain; Ab22 - Light chain
In the case of B6, the Kd [1, 9] is listed as 170 nM and the Kd [2] is listed as > 10000 nM.

B7: UK6Mab02: fully humanized antibody (H1L3) designed from Ab13, with human IgG1 heavy and kappa light constant regions (antibody, V domains shown)
VH: EVQLVQSGAEVKKPGASVKISCKASGYTFTSYWIEWVKQAPGKGLEWIGEINPSGGSTIYAEKFQGRATFTADTSTSTAYMELSSLRSEDTAVYYCARWVLDYYGMDYWGQGTSLTVSS
VL: QAVVTQEPSLTVSPGGTVTLTCGSSTGAVTSGNYANWVQQKPGQAFRGLIGGTNTRSSGVPDRFSGSLLGGKAALTISGAQPEDEAEYYCALWYSNKLVFGGGTKLTVL
modifications: H1 (UK6Mab02) Heavy Chain; L3 (UK6Mab02) - Light chain
In the case of B7, the “Binding with naltrexone in initial screening” value [4, 10] is reported as “did not show significant binding affinities”, the Kd ([4]; read-out: Kd, naltrexone, from competition with 2 nM [H^3]-morphine) is reported as > 10000 nM and the Kd [5] is reported as 15700 nM. For the same molecule, the Kd [6] was 127 nM, the “Binding with naloxone in initial screening” value [7, 10] was “did not show significant binding affinities” and the Kd ([7]; read-out: Kd, naloxone, from competition with 2 nM [H^3]-morphine) was > 10000 nM. It also gave a Kd [8] of 6910 nM.
